Results on one molecule are retold here after paper PMC9428257 (2022).

Common to all, as to experiment: FACS
A general note: A flow cytometer gives signals particle by particle.

In one assay the target is Clone V5.
For another assay, the target named is Clone V8.
In assay [1] the target is yeast-displayed mutant sBCMA V2 (V3 without N53D) (human, UniProt Q02223 1-54, S16G | H19Y | T36A).

As a reminder, the Kd is the free concentration of one partner at which half of the binding sites on the other are occupied at equilibrium, for simple one-to-one binding.

B1: human APRIL (a proliferation-inducing ligand) (ligand)
chain: AVLTQKQKKQHSVLHLVPINATSKDDSDVTEVMWQPALRRGRGLQAQGYGVRIQDAGVYLLYSQVLFQDVTFTMGQVVSREGQGRQETLFRCIRSMPSHPDRAYNSCYSAGVFHLHQGDILSVIIPRARAKLNLSPHGTFLGFVKL
For B1, the Kd came to 0.007 nM in the assay with Clone V5, 0.054 nM in the assay with Clone V8 and 0.018 nM in assay [1].
